This series is described as follows: soluble on expression in E. coli; label from the status in PepcDB or PDB records.
On to “MAHHHHHHMSLRPDVFGQPPIVDRFARFAIARRGSSSSHNNNNNNNNNNSGSVSPLERGGVHGNDKSPAAAPVAAGVGSKAGVRESSAKSRLSLGVSNTDVVLESPISSNAAEATSEVMDVTSTAQADDEEEDEVETLNRFMADQSDETATRTHKRTLFSLNLTLAEVMETAMHFSQMRPTSPEEYKKAMAMIRAADDARHERIAAFRSATPTTGSHNGMGSSPSSSLTTTPTVGYPDAALHIEEPMHFGVVMLHIRFALRKIIHASMRRLAAQQGPKTLSMMVEMLREVDPKWHQNQNNNSGELRRQSDSMLAGTLRVLVARSVVCVDLVGEAGDLLGGGAGGLAISAVGLQRTERALHLVQRAKRSATGSGGNTGDHVSRRRPQRHRGDGGARTSSSGEKRSIS”, for which the “soluble on expression in E. coli” value is recorded as “not soluble”.
“MSLSWDQVWIDVNVATMDPSISAPYGAITNAAIAVKDGKIAWLGPRSELPAFDVLSIPVYRGKGGWITPGLIDAHTHLVFAGNRANEFELRLKGATYEEIARAGGGIISTVNACREADEAELFDLGRQRLNALAKEGVTTVEIKSGYGLDTETELKILRVARELGQHHHVDVKTTFLGAHAVPPEFKDNSDGYVDLIINKMLPAVIAENLADAVDVFCENIAFNLEQTERVLSTAKAAGLQVKLHAEQLSNMGGSELAARLGAKSVDHIEYLDEAGVKALSESGTCAVLLPGAFYFLRETQKPPIDLLRQYGVPMVLASDFNPGSSPICSTLLMLNMGCTLFRLTPEEALAGLTLNAAKALGIEDNVGSLVVGKQADFCLWDIATPAQLAYSYGVNPCKDVVKNGKLIHQEGHHHHHH”: the “soluble on expression in E. coli” value is “soluble”.
Turning to “SAMAQKEEGHEAAAAEAKKETDLAHVDQVETFVGKEKYYVVKGTDKKGTALYVWVPADKKAKILSKEAKEGISEDKAAKIIKDEGLVSKQKEVHLAREGNVLLWEVTYLDKEGQYSLSYVDFTTGKILKNITP”, the “soluble on expression in E. coli” value was “soluble”.
Consider “MDNLMLNNKIYLEGTVVSELEFSHEMYGEGFYTFNLEVMRLSDSKDLLNITVSERLITTMDLKIGTEIVVEGQLRSYNKFIDGNNKLILTVFARNIEYCEERSKNPNEIFLDGFICKEPVYRTTPFGREIADLLLAVNRSYNKSDYIPTIAWGRNSRFCKTLEVGDNIRIWGRLQSREYQKKISETEVVKKIAYEVSISKMEKVSVESEQNESGEEISLEHHHHHH”, for which the “soluble on expression in E. coli” value is listed as “not soluble”.
The entry for “MKYGPSKDQIKQMAEEVREAAIRVKGEKELRMCPKTGHGSEWAGQLAVDANGAMNTYQPEGKYGDYGIGEDNRYLGTAKDWATLESGYQWIPGEFERYLMPEPHDFDALVDSAQKLTKDFVNVGQAKDPANVPAGTPTSVAPGTSAVDQPIRLSMGFTSDWSGHFADGFQRYLSEIPDVTRRQAVVAETLYEAAVAARDIYGAGREELGNIAKNAKLAIEGVEAGKSTGGCAGSSMATGFALIAAAATVAAGVSTLPISGPAVISGAMAAGNWTIVVGISSAIAAGSPLIPAPEKIELLASDVDGVIEKMKEALTKREKTVTDSEEAFAKKLGANSEMVEKNKVTGKDGGKSQDNAFFPRRPAMLDMSTDLKDLKDPATGFTHPVAAS” is “not soluble”.
As to “MGSDKIHHHHHHMAIYLEMPKLIHEFPFRSLSNEGEVLTTPHWHKEIEILLITEGVVNLFINDKPMQLKKGEIVIIKGGDIHYILPSPGSERLVFQFDISFFNDLILLNEEKESLINLFSSIKKCSRDWSAKIRKSVFDILIDIYNEDLYKIEGYSYAIKGKMYNLIPILYRQIPREIEENTVEYEINSKEILERLNNIFKYVEKNYKQPIKLEDVSYEVGFSVYYFTKFFKKNTGKTFITFLNEYRLEKAKWILLNNNISIVDLVEEVGFGSTKTFYRVFKEKIGVSPLEFKKRYNSLEKKGSVSK”, the “soluble on expression in E. coli” value was “not soluble”.
For the sequence “PVKPVAPGEQQKNWAHWGNTTHGDRFAALDQINKQNVNQLQVAWVAHTGDIPQSNGSGAEDQNTPLQIGDTLYVCTPYSKVLALDVDSGKEKWRYDSKSSSPNWQRCRGLGYYEDSQAQTAPAAGTQPAACSRRLFLPTIDARLIAIDADTGKLCESFGDRGIVDLSVGMGEVKAGYYQQTSTPLVAGNVVVVGGRVADNYSTGEPPGVVRAFDVHTGKLAWAWDPGNPALTGVPPEGQTYTRGTPNVWSAMSYDAKLNLIYLPTGNATPDFFGGERTALDDKYSSSIVAVDATTGQVRWHFQTTHHDLWDFDLPSQPLLYDLPDGKGGTTPVLVQTSKQGMIFMLNRETGEPVAKVEERPVPAGNVKGERYSPTQPYSVGMPMIGNQTLTESDMWGATPIDLLLCRIQFKEMRHQGVFTPPGEDRSLQFPGSLGGMNWGSVSLDPNNSLMFVNDMRLGLANYMVPRAKVAKDASGIEMGIVPMEGTPFGAMRERFLSPLGIPCQKPPFGTMSAVDLKTGKLVWQVPVGTVEDTGPLGIRMHMPIPIGMPTLGASLATQSGLLFFAGTQDFYLRAFDTANGKEIWKSRLPVGSQSGPMTYVSPKTGKQYIIINAGGARQSPDRGDYIIAYALPDHH”, the “soluble on expression in E. coli” value is “not soluble”.
The entry for “MAHHHHHHMSIYCRLASPPVFLRALHTVSVSRDGWATVVFTDSHVVLHVEGTDENMTATCTLPKNLFAEYAVVETRFALHIPTLIDALLMLGPSVATASTRAVLAYPTDDAKLLVELTPTDRVAGGGSCGGFSGGGPMTQSDLGV” is “soluble”; for “MSLVIYMIGGSPCSGKSTIASLLARQYQLLHIKLDDLVDEMMSQASADSQPICLLRQDRNPEQIWMRNPKEMADEEWRFYEEIFPYVKSYLIKKDRPLLVEGAGLLPHLVKELEWPASSYLCLTPTADFQKKHYRQREWVSYVLEGTTNPEQAFENWMQRDILFAQMVRKEAMRLGYSSLMTDGSQSEKQTAEEIARLLKLYNINEIDIKGENEGHHHHHH” it is “soluble”.
For “MKQRQWQGWGPGEQAEQQHYLVQPRALAGGGDIRHVSEFLRASGWRDKSKTCGPLLMESPDRTVRVAYDPYILPGGWTIHGRTGAKGEWSAHLGLQTPVEIVAGLTDALTRPRSAHAPSVWEPLQEQNWHTRFADQNYTATSPDGAAWMQYRQDADGSAMWWTGAKDEEGNGWTAHFTPNTPMHLVQAFSTELAGPDPVMRPRGRVPHSAQIRTWSVSVKPSQLSAWQQARITAARAATWARSSTRGTRPRTTARPHTPTGGARTRRLEHHHHHH”, the “soluble on expression in E. coli” value is on record as “not soluble”.
As to “MDGFGSHPRTLAVDQWMDIVNGKGYGVGGTTQVYSTRPDSPKFQPSIPPPPGSTSKTRTTATPWRLIDAETKRKKRIATYKTYALEGKVKSTVKKGFHWIKDRYSHIIHG”, the “soluble on expression in E. coli” value is on record as “soluble”.
For the sequence “MTDFDIDTSAANYADELALLGVTGAMSYAPKGTQMPETIAPLNPPFVDFGWLSDGGITESQNEERNDWTPFQSTNPIRGQVTKQDFQFKTVVWSISGLANAMYYGVPESDMRFDQETGVTTFEQGKELPPDFKFGLVVDIVDGGKARRHCMPNVSVVERGDIVYSKDDLVGYEMTFRASYDPVAGYAVRRMFKEGWKPGHAGTTLADENKDASLGDWSNTLDESEVRKQSKTVTLPKGATGGTFTVSINGKASAAINHDATGTAMKLVLNKVDGGESAKVTGRAGGPYTITGVEGEITADGTNLTGSDTQDISIN”, the “soluble on expression in E. coli” value was “not soluble”.
For the sequence “MSLSNIETVPASIEMKPNPTITVFERSPDGGRGLARDMPVRWALEEVGQPYHVRRLSFEAMKEASHLAYQPFGQIPSYEQGDLILFESGAIVMHIAQHHSGLLPEDQLRRARTVAWMFAALNTIEPSILNFTTVWLFERNEPWHEARLARTKEQLLKRLDELSAWLGDREWLEGSFSAADILMICVLRRLESSGILKDYGNLLAYVERGKARPAFKRAFDAQLAVFTAASKNEGHHHHHH”, the “soluble on expression in E. coli” value is “soluble”.
For “IKKEPEKPIDREKTCPLLLRVFTTNNGRHHRMDEFSRGNVPSSELQIYTWMDATLKELTSLVKEVYPEARKKGTHFNFAIVFTDVKRPGYRVKEIGSTMSGRKGTDDSMTLQSQKFQIGDYLDIAITPPNRAPPTSGRMRPY”, the “soluble on expression in E. coli” value is on record as “not soluble”.
For “MGSDKIHHHHHHMQDKNFDKLAQKFAKNIYGTPKGEIRAAVLWRDLAPALAQFGDKKLRILDAGGGFGYFSQKLARLGHEVVLCDISAEMLAQAKEQIDASDTPLAIRLVHAPIQALSITEHGMFDLILCHAVVEWLADAKTTMEGLLTMLKPNGLFSLMFYNKEAMRFHALVSGNFDYVAADLKVKKKVRLTPTHPLYIHEVKLWFAQWQMALLKESGVRVIHDYLKKQQAADFDYQKLLSMELEYSQREPYISLGRYVHFLGQSTATHSE”, the “soluble on expression in E. coli” value is given as “not soluble”.

The values above are taken from the DeepSol protein solubility set.
